Test results as given in paper doi:10.1101/2025.06.05.658052 (bioRxiv, 2025).

Tests used:
[1] = system: EppR (TetR-like error-prone polymerase regulator) (Acinetobacter baumannii ATCC 17978); assay: EMSA
SEC = target: the molecule itself; assay: SEC

Molecule	Kd [1] [nM]	binding result (SEC)
recA regulatory region (promoter + 5'-UTR), 145 bp	1100	–
His-tagged A. baumannii RecA (natural protein, Acinetobacter baumannii, UniProt A3M645 1-349, looked up) MDENKSKALQAALSQIEKQFGKNTVMRLGDNTVQAVEAVSTGSLTLDIALGIGGLPKGRIIEIYGPESSGKTTMTLQAIAQCQKSGGTCAFIDAEHALDPQYARKLGVDIDNLLVSQPDNGEQALEIADMLVRSGAIDLIVVDSVAALTPKAEIEGEMGDSHMGLQARLMSQALRKITGNAKRSNCMVIFINQIRMKIGVMFGSPETTTGGNALKFYASVRLDIRRIGQVKEGDEIVGSETKVKVVKNKMAPPFKEAIFQILYGKGTNQLGELVDLAVQQDIVQKAGAWYSYQGNKIGQGKNNVIRYFEENTQIAEEIERNIREQLLTTGTNGAVQIEDEEEPDLLLES	–	binds
